Laboratory results reported in publication PMC5669500, “Scaffolding the cup-shaped double membrane in autophagy” (PLoS Computational Biology, 2017).
Numbering of substitutions follows the chain as printed.

Legend:
Test in all cases: pull-down; 20 μg GST-Atg13 (351–458) immobilised on 30 μL Glutathione Sepharose 4B; Atg17-Atg31-Atg29 complex at 10 μM; 4°C, 1 hour; 20 mM Tris pH 8, 150 mM NaCl, 0.1 mM TCEP; 3 washes; SDS-PAGE
Conditions in all cases: both partners purified
[1] = target: T1, Atg17-Atg31-Atg29 complex, wild type (Saccharomyces cerevisiae, UniProt Q06410 1-417; Q12421 1-196; Q12092 1-213)
T1 construct: Atg17, Saccharomyces cerevisiae; Atg31, Saccharomyces cerevisiae; Atg29, Saccharomyces cerevisiae; a TEV cleavage site follows the His6 tag; Atg17 is described as a dimer; cleavage of the His6 tag by TEV is not mentioned; also called recombinant ternary complex; Atg17-Atg31-Atg29 subcomplex of Atg1; source: E. coli BL21 (DE3), co-expressed from pST39, purified (Ni-NTA, Superose 6); copies: 2 + +
T1 sequence (looked up) 1: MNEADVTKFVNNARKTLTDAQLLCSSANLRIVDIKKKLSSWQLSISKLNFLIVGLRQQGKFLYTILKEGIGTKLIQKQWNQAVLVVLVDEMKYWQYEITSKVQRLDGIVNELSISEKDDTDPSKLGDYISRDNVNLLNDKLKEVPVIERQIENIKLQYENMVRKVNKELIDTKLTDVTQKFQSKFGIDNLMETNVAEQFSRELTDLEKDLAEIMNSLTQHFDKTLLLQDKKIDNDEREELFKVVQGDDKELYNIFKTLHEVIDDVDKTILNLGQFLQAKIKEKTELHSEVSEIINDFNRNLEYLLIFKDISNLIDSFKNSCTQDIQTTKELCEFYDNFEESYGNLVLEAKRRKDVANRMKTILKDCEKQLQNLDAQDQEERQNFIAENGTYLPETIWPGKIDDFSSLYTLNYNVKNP
T1 sequence (looked up) 2: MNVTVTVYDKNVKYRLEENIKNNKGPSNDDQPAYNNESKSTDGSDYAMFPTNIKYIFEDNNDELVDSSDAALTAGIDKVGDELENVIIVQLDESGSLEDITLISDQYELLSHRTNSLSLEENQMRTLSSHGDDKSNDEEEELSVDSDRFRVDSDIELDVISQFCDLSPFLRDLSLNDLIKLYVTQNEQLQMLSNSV
T1 sequence (looked up) 3: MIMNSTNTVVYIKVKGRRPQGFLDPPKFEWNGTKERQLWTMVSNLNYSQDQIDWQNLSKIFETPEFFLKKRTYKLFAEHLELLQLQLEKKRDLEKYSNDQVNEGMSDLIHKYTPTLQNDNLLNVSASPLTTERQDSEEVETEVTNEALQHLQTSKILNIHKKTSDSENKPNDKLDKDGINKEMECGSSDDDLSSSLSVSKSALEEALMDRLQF

[2] = target: T2, Atg17-Atg31-Atg29 complex with Atg17 mutant M5 (K92D/L141D) (Saccharomyces cerevisiae, UniProt Q06410 1-417; Q12421 1-196; Q12092 1-213, K92D | L141D)
T2 construct: Atg17, Saccharomyces cerevisiae; Atg31, Saccharomyces cerevisiae; Atg29, Saccharomyces cerevisiae; a TEV cleavage site follows the His6 tag; Mutations introduced into the Atg17-Atg31-Atg29 construct by quick-change mutagenesis; source: E. coli BL21 (DE3), co-expressed from pST39, purified (Ni-NTA, Superose 6); copies: 2 + +
T2 sequence (looked up) 1: T1 sequence (looked up) 1 with K92D, L141D
T2 sequence (looked up) 2: T1 sequence (looked up) 2
T2 sequence (looked up) 3: T1 sequence (looked up) 3

[3] = target: T3, Atg17-Atg31-Atg29 complex with Atg17 mutant M4 (K164D/K173D/R299D) (Saccharomyces cerevisiae, UniProt Q06410 1-417; Q12421 1-196; Q12092 1-213, K164D | K173D | R299D)
T3 construct: Atg17, Saccharomyces cerevisiae; Atg31, Saccharomyces cerevisiae; Atg29, Saccharomyces cerevisiae; a TEV cleavage site follows the His6 tag; Mutations introduced into the Atg17-Atg31-Atg29 construct by quick-change mutagenesis; source: E. coli BL21 (DE3), co-expressed from pST39, purified (Ni-NTA, Superose 6); copies: 2 + +
T3 sequence (looked up) 1: T1 sequence (looked up) 1 with K164D, K173D, R299D
T3 sequence (looked up) 2: T1 sequence (looked up) 2
T3 sequence (looked up) 3: T1 sequence (looked up) 3

Measured: binding result

B1: GST-Atg13 (351–458) (domain or fragment, Saccharomyces cerevisiae, UniProt Q06628 351-458, looked up)
chain: TRANSFEPQSWQKKVYPISRPVQPFKVGSIGSQSASRNPSNSSFFNQPPVHRPSMSSNYGPQMNIEGTSVGSTSKYSSSFGNIRRHSSVKTTENAEKVSKAVKSPLQP
notes: a TEV cleavage site follows the GST tag; source: recombinant from pGST2 vector, purified (Glutathione Sepharose 4B, HiLoad Superdex 200 16/60); not shown: GST, N-terminal, kept
binds: [1] | [2] | [3]
